# From US20240301068A1 (BEIJING HANMI PHARMACEUTICAL, published 2024)
# Tests used:
# [1] = target: T1, recombinant human PD-L1-Fc protein (human, UniProt Q9NZQ7 19-238, limits assumed); assay: blocking ELISA, plate coated with 1 ug/mL human PD-L1-Fc; blocked ligand biotin-labelled PD-1-Fc at 20 nM final, streptavidin-HRP, OD450
# T1 construct: Prepared by Beijing Hanmi Pharmaceutical; The GenBank number is NP_001254635.1
# Protocol: (§1) A 96-well high-adsorption ELISA plate was coated with 1 μg/mL of the recombinant human PD-L1-Fc at 100 μL per well using carbonate buffer solution, pH=9.6 at 4° C. overnight. The plate was washed 5 times with PBST, and then blocked using PBST with 1% BSA, 300 μL/well, and incubated at 25° C. for 1 hour, and then washed 5 times with PBST. […] The Streptavidin-HRP (BD Pharmingen, catalog number 554066) diluted 1:1000 in PBST with 1% BSA was then added, 100 μL per well, and incubated at 25° C. for 1 hour. The plate was washed 5 times with PBST. The colorimetric substrate TMB was added, 100 μL/well, and developed at room temperature for 10 minutes. 1M H₂SO₄ was added, 100 μL/well, to stop the development. The absorbance at 450 nm was read on a microplate reader.
# [2] = target: T2, recombinant human PD-L1 (Sino Biological Inc.) (human, UniProt Q9NZQ7 19-239); assay: ELISA, plate coated with 1 ug/mL recombinant human PD-L1, anti-mouse IgG-HRP, OD450
# Protocol: The plate was washed 5 times with PBST, and then blocked using PBST with 1% BSA, 300 μL/well, and incubated at 25° C. for 1 hour, and then washed 5 times with PBST. […] The plate was washed 5 times with PBST. The colorimetric substrate TMB was added, 100 μL/well, and developed at room temperature for 10 minutes. 1M H₂SO₄ was added, 100 μL/well, to stop the development. The absorbance at 450 nm was read on a microplate reader.
# [3] = target: T2, recombinant human PD-L1 (Sino …); assay: affinity determination (dissociation constant), method not stated
# [4] = target: T2, recombinant human PD-L1 (Sino …); assay: ELISA, human PD-L1 coated
# Protocol: as §1, with “PD-L1 (Sino Biological Inc.)” for “PD-L1-Fc”, “horseradish peroxidase-labeled anti-human IgG antibody (Chemicon,” for “Streptavidin-HRP (BD Pharmingen,”, “AP309P)” for “554066)”, “1:10000” for “1:1000”
# [5] = target: T2, recombinant human PD-L1 (Sino …); assay: PD-L1/CD80 blocking assay, competitor CD80, format not described
# [6] = target: T2, recombinant human PD-L1 (Sino …); assay: SPR, Biacore X100
# Protocol: This instrument utilizes optical surface plasmon resonance technology to detect the association and dissociation between the molecules coated on the biochip and the molecules to be tested. Association constants and dissociation constants were analyzed and calculated by Biacore X100 evaluation software. […]
# [7] = target: T1, recombinant human PD-L1-Fc protein; assay: competition ELISA: PD-L1-Fc coated, competitor biotin-labelled PD-1-Fc
# Protocol: as §1
# T2 sequence (Q9NZQ7 19-239 limits assumed): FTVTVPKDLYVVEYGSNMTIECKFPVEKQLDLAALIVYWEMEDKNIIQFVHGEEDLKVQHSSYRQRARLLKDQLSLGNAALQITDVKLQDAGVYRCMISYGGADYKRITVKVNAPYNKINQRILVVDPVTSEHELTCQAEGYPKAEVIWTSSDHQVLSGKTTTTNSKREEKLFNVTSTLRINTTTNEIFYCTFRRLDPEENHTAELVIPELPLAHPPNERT
# T1 sequence (Q9NZQ7 19-238 limits assumed): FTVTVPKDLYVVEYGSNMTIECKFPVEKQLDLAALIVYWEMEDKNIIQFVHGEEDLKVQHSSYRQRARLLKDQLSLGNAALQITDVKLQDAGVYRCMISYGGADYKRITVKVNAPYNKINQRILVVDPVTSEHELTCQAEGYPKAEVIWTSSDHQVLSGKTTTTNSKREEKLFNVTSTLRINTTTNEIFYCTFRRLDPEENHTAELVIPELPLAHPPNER
Binder,IC50 [1] [nM],EC50 [2] [nM],koff [3] [s⁻¹],EC50 [4] [nM],IC50 [5] [nM],Kd [6] [nM],koff [6] [s⁻¹],kon [6] [M⁻¹ s⁻¹],IC50 [7] [nM]
"murine anti-human PD-L1 monoclonal antibody secreted by the clone 34-35 (antibody, V domains shown, also called murine monoclonal antibodies) VH: EVQLQQSGAELVKPGASVKLSCTASGFNIEDTYIHWVMQRPEQGLEWIGRIDPANGNTKYDPKFQGKATITADTSSNTAYLQLSSLTSEDTAVYYCGRGLGAWFAYWGQGTLVTVSA VL: DIVMTQSHKVMSTSVGDRVTITCKASQDVHTAVAWIHQKPGQSPKLLIYSASNRYTGVPDRFTGSGSGTDFTFTISSVQAEDLAVYYCQQHYITPLTFGAGTTLELK",0.61,0.494,,,,,,,
"humanized anti-human PD-L1 monoclonal antibody VLS10-VHS7 (antibody, human IgG1, kappa, V domains shown) VH: QVQLVQSGAEVKKPGSSVKVSCTASGFNIEDTYIHWVRQAPGQGLEWMGRIDPANGNTKYDPKFQGRVTITADTSTNTAYMELSSLRSEDTAVYYCGRGLGAWFAYWGQGTLVTVSS VL: DIQMTQSPSSLSASVGDRVTITCKASQDVHTAVAWIHQKPGKAPKLLIYSASNRYTGVPSRFSGSGSGTDFTFTISSLQPEDIATYYCQQHYITPLTFGQGTKLEIKR",,,0.000672,0.067,0.89,1.71,0.000584,341000,0.749
"humanized anti-human PD-L1 monoclonal antibody VLS10-VHS7 P1 (antibody, human IgG1, kappa, V domains shown) VH: QVQLVQSGAEVKKPGSSVKVSCTASGFNIEDTYIHWVRQAPGQGLEWMGRIDPAQGNTKYDPKFQGRVTITADTSTNTAYMELSSLRSEDTAVYYCGRGLGAWFAYWGQGTLVTVSS VL: DIQMTQSPSSLSASVGDRVTITCKASQDVHTAVAWIHQKPGKAPKLLIYSASNRYTGVPSRFSGSGSGTDFTFTISSLQPEDIATYYCQQHYITPLTFGQGTKLEIKR",,,,0.067,0.865,3.16,0.00108,341000,0.756
"humanized anti-human PD-L1 monoclonal antibody VLS10-VHS7 P2 (antibody, human IgG1, kappa, V domains shown) VH: QVQLVQSGAEVKKPGSSVKVSCTASGFNIEDTYIHWVRQAPGQGLEWMGRIDPASGNTKYDPKFQGRVTITADTSTNTAYMELSSLRSEDTAVYYCGRGLGAWFAYWGQGTLVTVSS VL: DIQMTQSPSSLSASVGDRVTITCKASQDVHTAVAWIHQKPGKAPKLLIYSASNRYTGVPSRFSGSGSGTDFTFTISSLQPEDIATYYCQQHYITPLTFGQGTKLEIKR",,,,0.059,0.857,3.23,0.000994,307000,0.725
"humanized anti-human PD-L1 monoclonal antibody VLS10-VHS7 P3 (antibody, human IgG1, kappa, V domains shown) VH: QVQLVQSGAEVKKPGSSVKVSCTASGFNIEDTYIHWVRQAPGQGLEWMGRIDPANANTKYDPKFQGRVTITADTSTNTAYMELSSLRSEDTAVYYCGRGLGAWFAYWGQGTLVTVSS VL: DIQMTQSPSSLSASVGDRVTITCKASQDVHTAVAWIHQKPGKAPKLLIYSASNRYTGVPSRFSGSGSGTDFTFTISSLQPEDIATYYCQQHYITPLTFGQGTKLEIKR",,,,0.063,0.804,2.93,0.000747,255000,0.617
"humanized anti-human PD-L1 monoclonal antibody VLS15-VHS12 (antibody, human IgG1, kappa, V domains shown) VH: EVQLVQSGAEVKKPGSSVKVSCKASGFNIEDTYIHWVRQAPGQGLEWMGRIDPANGNTKYDPKFQGRVTITADTSTNTAYMELSSLRSEDTAVYYCGRGLGAWFAYWGQGTLVTVSS VL: DIQMTQSPSSLSASVGDRVTITCKASQDVHTAVAWIQQKPGKSPKLLIYSASNRYTGVPSRFSGSGSGTDFTFTISSLQPEDIATYYCQQHYITPLTFGQGTKLEIKR",,,0.000486,0.046,0.802,1.39,0.000477,342000,0.666
"humanized anti-human PD-L1 monoclonal antibody VLS15-VHS12 P1 (antibody, human IgG1, kappa, V domains shown) VH: EVQLVQSGAEVKKPGSSVKVSCKASGFNIEDTYIHWVRQAPGQGLEWMGRIDPAQGNTKYDPKFQGRVTITADTSTNTAYMELSSLRSEDTAVYYCGRGLGAWFAYWGQGTLVTVSS VL: DIQMTQSPSSLSASVGDRVTITCKASQDVHTAVAWIQQKPGKSPKLLIYSASNRYTGVPSRFSGSGSGTDFTFTISSLQPEDIATYYCQQHYITPLTFGQGTKLEIKR",,,,0.048,0.795,2.56,0.000833,326000,0.567
"humanized anti-human PD-L1 monoclonal antibody VLS15-VHS12 P2 (antibody, human IgG1, kappa, V domains shown) VH: EVQLVQSGAEVKKPGSSVKVSCKASGFNIEDTYIHWVRQAPGQGLEWMGRIDPASGNTKYDPKFQGRVTITADTSTNTAYMELSSLRSEDTAVYYCGRGLGAWFAYWGQGTLVTVSS VL: DIQMTQSPSSLSASVGDRVTITCKASQDVHTAVAWIQQKPGKSPKLLIYSASNRYTGVPSRFSGSGSGTDFTFTISSLQPEDIATYYCQQHYITPLTFGQGTKLEIKR",,,,0.06,0.755,1.94,0.00072,372000,0.585
"humanized anti-human PD-L1 monoclonal antibody VLS15-VHS12 P3 (antibody, human IgG1, kappa, V domains shown) VH: EVQLVQSGAEVKKPGSSVKVSCKASGFNIEDTYIHWVRQAPGQGLEWMGRIDPANANTKYDPKFQGRVTITADTSTNTAYMELSSLRSEDTAVYYCGRGLGAWFAYWGQGTLVTVSS VL: DIQMTQSPSSLSASVGDRVTITCKASQDVHTAVAWIQQKPGKSPKLLIYSASNRYTGVPSRFSGSGSGTDFTFTISSLQPEDIATYYCQQHYITPLTFGQGTKLEIKR",,,,0.075,0.813,1.56,0.000528,338000,0.613
